Test results published in US20220040297A1 (Chugai, published 2022).
Numbering of substitutions follows the chain as printed. Names may count otherwise.

B1: CE115HA000 N53D (antibody, name in Kabat numbering, V domains shown)
VH: QVQLVESGGGVVQPGRSLRLSCAASGFTFSNAWMHWVRQAPGKGLEWVAQIKAKSDNYATYYAESVKGRFTISRDDSKNSLYLQMNSLKTEDTAVYYCRYVHYGAYYGVDAWGQGTTVTVSS
VL: DIVMTQSPLSLPVTPGEPASISCRSSQSLVHSNRNTYLHWYQQKPGQAPRLLIYKVSNRFSGVPDRFSGSGSGTDFTLKISRVEAEDVGVYYCGQGTQVPYTFGQGTKLEIK
B2: CE115HA000 T28D (antibody, name in Kabat numbering, V domains shown)
VH: B1 VH with T28D, D56N
VL: B1 VL
B3: CE115HA000 Q50K (antibody, name in Kabat numbering, V domains shown)
VH: B1 VH with Q50K, D56N
VL: B1 VL
B4: CE115HA000 N53Q (antibody, name in Kabat numbering, V domains shown)
VH: B1 VH with D56Q
VL: B1 VL
B5: CE115HA000 S52cL (antibody, name in Kabat numbering, V domains shown)
VH: B1 VH with S55L, D56N
VL: B1 VL
B6: CE115HA000 Q50E (antibody, name in Kabat numbering, V domains shown)
VH: B1 VH with Q50E, D56N
VL: B1 VL
B7: CE115HA000 N53S (antibody, name in Kabat numbering, V domains shown)
VH: B1 VH with D56S
VL: B1 VL
B8: CE115HA000 Q50D (antibody, name in Kabat numbering, V domains shown)
VH: B1 VH with Q50D, D56N
VL: B1 VL
B9: CE115HA000 S52cQ (antibody, name in Kabat numbering, V domains shown)
VH: B1 VH with S55Q, D56N
VL: B1 VL
B10: CE115HA000 Q50I (antibody, name in Kabat numbering, V domains shown)
VH: B1 VH with Q50I, D56N
VL: B1 VL
B11: CE115HA000 S52cK (antibody, name in Kabat numbering, V domains shown)
VH: B1 VH with S55K, D56N
VL: B1 VL
B12: CE115HA000 S30D (antibody, name in Kabat numbering, V domains shown)
VH: B1 VH with S30D, D56N
VL: B1 VL
B13: CE115HA000 R16Q (antibody, name in Kabat numbering, V domains shown)
VH: B1 VH with R16Q, D56N
VL: B1 VL
B14: CE115HA000 N54K (antibody, name in Kabat numbering, V domains shown)
VH: B1 VH with D56N, N57K
VL: B1 VL
B15: CE115HA000 S62K (antibody, name in Kabat numbering, V domains shown)
VH: B1 VH with D56N, S65K
VL: B1 VL
B16: CE115HA000 S52cV (antibody, name in Kabat numbering, V domains shown)
VH: B1 VH with S55V, D56N
VL: B1 VL
B17: CE115HA000 S62D (antibody, name in Kabat numbering, V domains shown)
VH: B1 VH with D56N, S65D
VL: B1 VL
B18: CE115HA000 S74P (antibody, name in Kabat numbering, V domains shown)
VH: B1 VH with D56N, S77P
VL: B1 VL
B19: CE115HA000 N53I (antibody, name in Kabat numbering, V domains shown)
VH: B1 VH with D56I
VL: B1 VL
B20: CE115HA000 N54Q (antibody, name in Kabat numbering, V domains shown)
VH: B1 VH with D56N, N57Q
VL: B1 VL
B21: CE115HA000 N54F (antibody, name in Kabat numbering, V domains shown)
VH: B1 VH with D56N, N57F
VL: B1 VL
B22: CE115HA000 Q50Y (antibody, name in Kabat numbering, V domains shown)
VH: B1 VH with Q50Y, D56N
VL: B1 VL
B23: CE115HA000 N54A (antibody, name in Kabat numbering, V domains shown)
VH: B1 VH with D56N, N57A
VL: B1 VL
B24: CE115HA000 S62P (antibody, name in Kabat numbering, V domains shown)
VH: B1 VH with D56N, S65P
VL: B1 VL
B25: CE115HA000 Q50L (antibody, name in Kabat numbering, V domains shown)
VH: B1 VH with Q50L, D56N
VL: B1 VL
B26: CE115HA000 S30G (antibody, name in Kabat numbering, V domains shown)
VH: B1 VH with S30G, D56N
VL: B1 VL
B27: CE115HA000 Q105E (antibody, name in Kabat numbering, V domains shown)
VH: B1 VH with D56N, Q114E
VL: B1 VL
B28: CE115HA000 N53W (antibody, name in Kabat numbering, V domains shown)
VH: B1 VH with D56W
VL: B1 VL
B29: CE115HA000 N53G (antibody, name in Kabat numbering, V domains shown)
VH: B1 VH with D56G
VL: B1 VL
B30: CE115HA000 N54L (antibody, name in Kabat numbering, V domains shown)
VH: B1 VH with D56N, N57L
VL: B1 VL
B31: CE115HA000 N54S (antibody, name in Kabat numbering, V domains shown)
VH: B1 VH with D56N, N57S
VL: B1 VL
B32: CE115HA000 S52cF (antibody, name in Kabat numbering, V domains shown)
VH: B1 VH with S55F, D56N
VL: B1 VL
B33: CE115HA000 S77T (antibody, name in Kabat numbering, V domains shown)
VH: B1 VH with D56N, S80T
VL: B1 VL
B34: CE115HA000 Q50A (antibody, name in Kabat numbering, V domains shown)
VH: B1 VH with Q50A, D56N
VL: B1 VL
B35: CE115HA000 N54G (antibody, name in Kabat numbering, V domains shown)
VH: B1 VH with D56N, N57G
VL: B1 VL
B36: CE115HA000 S52cG (antibody, name in Kabat numbering, V domains shown)
VH: B1 VH with S55G, D56N
VL: B1 VL
B37: CE115HA000 N53K (antibody, name in Kabat numbering, V domains shown)
VH: B1 VH with D56K
VL: B1 VL
B38: CE115HA000 S52cD (antibody, name in Kabat numbering, V domains shown)
VH: B1 VH with S55D, D56N
VL: B1 VL
B39: CE115HA000 Q50S (antibody, name in Kabat numbering, V domains shown)
VH: B1 VH with Q50S, D56N
VL: B1 VL
B40: CE115HA000 N54D (antibody, name in Kabat numbering, V domains shown)
VH: B1 VH with D56N, N57D
VL: B1 VL
B41: CE115HA000 R19T (antibody, name in Kabat numbering, V domains shown)
VH: B1 VH with R19T, D56N
VL: B1 VL
B42: CE115HA000 N53H (antibody, name in Kabat numbering, V domains shown)
VH: B1 VH with D56H
VL: B1 VL
B43: CE115HA000 R16E (antibody, name in Kabat numbering, V domains shown)
VH: B1 VH with R16E, D56N
VL: B1 VL
B44: CE115HA000 S52cA (antibody, name in Kabat numbering, V domains shown)
VH: B1 VH with S55A, D56N
VL: B1 VL
B45: CE115HA000 S62E (antibody, name in Kabat numbering, V domains shown)
VH: B1 VH with D56N, S65E
VL: B1 VL

molecular target: T1, CD3ε homodimer protein (human, UniProt P07766 23-126, limits assumed, sulfo-tag or biotin label in some ECL assays); experiment: SPR, CD3ε homodimer on chip;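 also: biacore SPR with antibody variants flowed as analyte over amine-coupled CD3ε homodimer on a CM chip, bound amount of each single-residue H chain variant over that of parent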
T1 construct: also called human CD3ε homodimer protein; CD3 (CD3ε)
T1 sequence (P07766 23-126 limits assumed): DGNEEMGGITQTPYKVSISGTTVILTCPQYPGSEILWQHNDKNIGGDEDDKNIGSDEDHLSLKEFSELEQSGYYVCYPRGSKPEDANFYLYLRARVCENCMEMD
Method: An appropriate amount of CD3ε homodimer protein was immobilized onto Sensor chip CM4 (GE Healthcare Japan Corp.) by the amine coupling method. Then, the antibody having an appropriate concentration was injected thereto as an analyte and allowed to interact with the CD3ε homodimer protein on the sensor chip. Then, the sensor chip was regenerated by the injection of 10 mmol/L glycine-HCl (pH 1.5). The assay was conducted at 25° C., and HBS-EP+ (GE Healthcare Japan Corp.) was used as a running buffer. […] Each parameter was calculated using Biacore T200 Evaluation Software (GE Healthcare Japan Corp.).
Specifically, when the amount of the antibody comprising CE115HA000 bound was defined as X and the amount of the H chain one-amino acid altered form bound was defined as Y, a value of Z (ratio of amounts bound)=Y/X was used.

In order of rising “ratio of amounts bound vs CE115HA000” value:
1. B25  0.23
2. B34  0.24
3. B39  0.24
4. B22  0.25
5. B6  0.26
6. B8  0.27
7. B3  0.33
8. B1  0.39
9. B10  0.4
10. B29  0.5
11. B2  0.56
12. B38  0.6
13. B40  0.62
14. B19  0.68
15. B42  0.76
16. B37  0.78
17. B41  0.8
18. B7  0.83
19. B20  0.84
20. B31  0.84
21. B23  0.85
22. B12  0.86
23. B28  0.88
24. B43  0.88
25. B13  0.9
26. B33  0.9
27. B18  0.91
28. B17  0.92
29. B45  0.92
30. B16  0.93
31. B27  0.94
32. B30  0.94
33. B44  0.96
34. B36  0.97
35. B5  0.98
36. B35  0.98
37. B24  1
38. B26  1.01
39. B9  1.04
40. B4  1.1
41. B21  1.12
42. B32  1.13
43. B11  1.19
44. B15  1.19
45. B14  1.2
